The text below walks through data of article PMC5449386.

Holding throughout (assay): controlled Fab-arm exchange read by hydrophobic interaction chromatography; equimolar parental antibodies, 1 mg/mL each, 75 mM 2-MEA, 5 h at 31 °C; 2-MEA removed, overnight at 4 °C for re-oxidation; percent bispecific product from HIC peak areas
Assay [1] deals with mmIgG2b-K409R parental antibody (7D8-derived) (human | mouse).
In assay [2] the target is IgG1-CH3(mmG2a)-T370K-K409R parental antibody (7D8-derived) (human | mouse).
For assay [3], the target named is IgG1-CH3(mmG2a)-K409R parental antibody with the R411T mutation (7D8-derived) (human | mouse).
Sequence of IgG1-CH3(mmG2a)-K409R parental antibody with the R411T mutation (7D8-derived) (human | mouse) (heavy, as listed by the source, chain 1 of 2): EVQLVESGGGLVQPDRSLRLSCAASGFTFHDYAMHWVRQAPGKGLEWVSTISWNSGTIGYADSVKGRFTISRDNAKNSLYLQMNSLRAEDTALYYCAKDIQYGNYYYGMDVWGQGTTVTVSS
Sequence of IgG1-CH3(mmG2a)-K409R parental antibody with the R411T mutation (7D8-derived) (human | mouse) (light, as listed by the source, chain 2 of 2): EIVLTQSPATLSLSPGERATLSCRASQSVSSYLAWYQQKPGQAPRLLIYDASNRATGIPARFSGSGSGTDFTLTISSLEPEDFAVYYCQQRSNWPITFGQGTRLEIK

Sequence of IgG1-CH3(mmG2a)-T370K-K409R parental antibody (7D8-derived) (human | mouse) (heavy, as listed by the source, chain 1 of 2): as the sequence (heavy, as listed by the source, chain 1 of 2) above
Sequence of IgG1-CH3(mmG2a)-T370K-K409R parental antibody (7D8-derived) (human | mouse) (light, as listed by the source, chain 2 of 2): as the sequence (light, as listed by the source, chain 2 of 2) above
Sequence of mmIgG2b-K409R parental antibody (7D8-derived) (human | mouse) (heavy, as listed by the source, chain 1 of 2): as the sequence (heavy, as listed by the source, chain 1 of 2) above
Sequence of mmIgG2b-K409R parental antibody (7D8-derived) (human | mouse) (light, as listed by the source, chain 2 of 2): as the sequence (light, as listed by the source, chain 2 of 2) above

Take “mmIgG2b-F405L parental antibody (2F8-derived)”: in assay [1], the cFAE efficiency (percent bispecific product by HIC) is 80%.

With “IgG1-CH3(mmG2a)-F405L parental antibody (2F8-derived)”, the cFAE efficiency (percent bispecific product by HIC) in assay [2] is over 90%.

In the case of “IgG1-CH3(mmG2a)-F405L parental antibody with the T370K mutation (2F8-derived)”, in assay [2], the cFAE efficiency (percent bispecific product by HIC) was 76%.

For “IgG1-CH3(mmG2a)-F405L-R411T parental antibody (2F8-derived)”, the cFAE efficiency (percent bispecific product by HIC) in assay [3] is 61%; in assay [2], over 90%.
